Reference: patent US20230399416A1 (MIRIMGENE, published 2023)

Columns and labels:
[1] = target: T1, human WARS1 recombinant protein (human, UniProt P23381 1-471, limits assumed); assay: SPR, Biacore T200, CM5 chip, serially diluted GKB101 injected
T1 construct: In the immunoblot the endogenous WARS1 of THP-1 human monocytes was also detected; also called human recombinant protein; tryptophanyl-tRNA synthetase 1, cytoplasmic
T1 sequence (looked up): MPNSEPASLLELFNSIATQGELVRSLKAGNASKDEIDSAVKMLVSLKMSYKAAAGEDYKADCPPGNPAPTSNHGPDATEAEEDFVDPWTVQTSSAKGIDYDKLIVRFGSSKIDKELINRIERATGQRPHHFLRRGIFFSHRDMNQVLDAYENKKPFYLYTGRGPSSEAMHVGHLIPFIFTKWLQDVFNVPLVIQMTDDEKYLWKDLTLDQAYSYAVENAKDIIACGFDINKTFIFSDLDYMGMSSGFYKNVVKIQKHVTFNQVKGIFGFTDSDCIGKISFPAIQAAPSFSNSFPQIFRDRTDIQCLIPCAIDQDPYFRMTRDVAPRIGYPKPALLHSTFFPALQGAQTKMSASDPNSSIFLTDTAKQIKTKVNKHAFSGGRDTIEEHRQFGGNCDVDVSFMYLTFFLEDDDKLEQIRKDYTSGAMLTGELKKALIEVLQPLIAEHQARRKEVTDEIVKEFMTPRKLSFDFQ
Method: (§1) 1) SPR: Binding ability was measured using Series S Sensor CM5 Chip (GE Healthcare Life Sciences) and GE Bioacore T200. A HBS-EP buffer (GE Healthcare Life Sciences) was used. After injecting serially diluted GKB101 or buffer for 1-10 minutes at a flow rate of 30 μL/min, the analyte was washed for 20 minutes.

[2] = target: T2, mouse WARS1 recombinant protein (mouse, UniProt P32921 1-481, limits assumed); assay: as above
T2 construct: In the immunoblot the endogenous WARS1 of J774.1A mouse macrophages was also detected; also called mouse recombinant protein
T2 sequence (looked up): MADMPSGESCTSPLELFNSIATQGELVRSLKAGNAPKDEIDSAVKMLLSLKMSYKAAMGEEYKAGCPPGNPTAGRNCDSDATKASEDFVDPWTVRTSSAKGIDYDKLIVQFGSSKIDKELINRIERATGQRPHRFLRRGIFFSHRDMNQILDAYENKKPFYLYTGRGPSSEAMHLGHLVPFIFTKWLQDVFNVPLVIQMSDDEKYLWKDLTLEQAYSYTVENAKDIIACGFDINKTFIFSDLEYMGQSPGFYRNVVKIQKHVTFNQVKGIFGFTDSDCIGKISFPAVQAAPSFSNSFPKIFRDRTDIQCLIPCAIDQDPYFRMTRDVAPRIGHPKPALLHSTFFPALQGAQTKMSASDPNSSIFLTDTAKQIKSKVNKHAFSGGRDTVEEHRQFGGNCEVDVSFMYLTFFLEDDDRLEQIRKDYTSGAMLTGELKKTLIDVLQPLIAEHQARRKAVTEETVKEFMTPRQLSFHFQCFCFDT
Method: as §1

B1: GKB101 (antibody, IgG1, V domains shown)
VH: EVQLLESGGGLVQPGGSLRLSCAASGFTFSSYDMSWVRQAPGKGLEWVSAISSGGSSIYYADSVKGRFTISRDNSKNTLYLQMNSLRAEDTAVYYCARDVAWDMLGDFDYWGQGTLVTVSS
VL: QSVLTQPPSASGTPGQRVTISCTGSSSNIGSNYVYWYQQLPGTAPKLLIYANSHRPSGVPDRFSGSKSGTSASLAISGLRSEDEADYYCGAWDDSLSAYVFGGGTKLTVTV
notes: IgG1 made from the selected scFv with the constant regions of herceptin expression vectors, expressed in Expi293F cells; Joined as printed they may lack a few residues at the junctions (VL/CL, CH2/CH3) and at the C-terminus of CH3; also called WARS1-specific antibody; anti-WARS1 antibody
Work on B1 yielded a Kd [1] of ~0.2 nM and a Kd [2] of ~3.76 nM.
